Test results taken from patent US20040234519A1.

How the values were obtained:
[1] = biological target: T1, recombinant human PTN (R & D Systems, cat# 252-PL) (human) (UniProt P21246); assay: ELISA, plate coated with rhPTN, hybridoma antibody, read at 450 nm
T1 sequence: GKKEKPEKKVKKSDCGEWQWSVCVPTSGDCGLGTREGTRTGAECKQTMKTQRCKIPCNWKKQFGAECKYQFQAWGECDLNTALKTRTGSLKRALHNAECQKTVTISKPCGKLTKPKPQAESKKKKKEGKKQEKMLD

[2] = biological target: T2, PTN secreted by SW13/PTN cells (SW13 human adrenal carcinoma cells stably transfected with PTN cDNA) (human) (UniProt P21246); assay: cell-based or functional assay
T2 sequence: T1 sequence

[3] = biological target: T2, PTN secreted by SW13/PTN cells (SW13 human adrenal carcinoma cells stably transfected with PTN cDNA) (human); assay: ELISA, PTN captured from SW13/PTN supernatant by goat anti-human PTN polyclonal, read at 450 nm

ELISA OD [1]: 0.597 OD
Proliferation NIH 3T3 (inhibition) [2]: 50 % inhibition
Proliferation U87 MG (inhibition) [2]: 50 % inhibition
Proliferation WI38 (inhibition) [2]: 25 % inhibition
Soft Agar (inhibition) [2]: 100 % inhibition
inhibition of SW13 colony formation in soft agar, antibody at 10 ug/ml [2]: < 95%
ELISA OD [3]: 0.139 OD
B1: monoclonal antibody produced by the hybridoma cell line 3B10 (antibody, V domains shown)
VH: QVQLQQSGPELVKPGASVKISCQASGYAFSSHWMNWVKQRPGKGLEWIGRIYPGDGDSLYNGKFKGKATLTADKSSTTVYMQLSSLTSEDSAVYFCARTRAYGPAWFAYWGQGTLVTVSA
VL: DIVMTQSPSSLAMSVGQKVTLSCRSSQSLLDSNNQKNYLAWYQQKPGQSPKLLVYFASIRESGVPDRFIGSGSGTDFTLTITSVQAEDLADYFCQQHYSTPLTFGAGTKLELK
modifications: N-terminus of the heavy chain blocked, most likely modified NH2-terminal glutamine
